T1: MPDZ_5, O75970
T1 sequence (O75970 695-796, limits assumed, looked up): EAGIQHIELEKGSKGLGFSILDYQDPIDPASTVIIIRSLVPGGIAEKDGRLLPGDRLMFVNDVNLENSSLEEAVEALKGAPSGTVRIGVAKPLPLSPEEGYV

T2: GRIP1_3, Q9Y3R0
T2 sequence (Q9Y3R0 247-346, limits assumed, looked up): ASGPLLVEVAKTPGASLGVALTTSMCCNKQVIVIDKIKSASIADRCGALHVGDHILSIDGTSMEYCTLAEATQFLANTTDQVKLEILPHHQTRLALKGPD

T3: DLG3_2, Q92796
T3 sequence (Q92796 221-321, limits assumed, looked up): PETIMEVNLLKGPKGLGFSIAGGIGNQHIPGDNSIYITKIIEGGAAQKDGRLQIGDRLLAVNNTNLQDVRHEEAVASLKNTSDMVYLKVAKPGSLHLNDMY

T4: SIPA1L2, Q9P2F8
T4 sequence (Q9P2F8 945-1036, limits assumed, looked up): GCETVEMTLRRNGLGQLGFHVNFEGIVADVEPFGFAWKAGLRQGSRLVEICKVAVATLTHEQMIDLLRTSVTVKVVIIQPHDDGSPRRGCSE

T5: DLG3_3, Q92796
T5 sequence (Q92796 374-475, limits assumed, looked up): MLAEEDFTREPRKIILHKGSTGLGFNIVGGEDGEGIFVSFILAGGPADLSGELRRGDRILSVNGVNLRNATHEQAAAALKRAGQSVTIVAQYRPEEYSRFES

T6: MPP7, Q5T2T1
T6 sequence (Q5T2T1 134-230, limits assumed, looked up): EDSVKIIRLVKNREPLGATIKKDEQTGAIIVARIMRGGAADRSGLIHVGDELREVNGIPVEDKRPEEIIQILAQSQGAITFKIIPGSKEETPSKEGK

T7: ARHGEF11, O15085
T7 sequence (O15085 42-136, limits assumed, looked up): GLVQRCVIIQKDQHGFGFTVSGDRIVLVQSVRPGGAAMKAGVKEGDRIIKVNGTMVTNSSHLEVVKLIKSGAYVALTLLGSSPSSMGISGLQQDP

T8: RADIL, Q96JH8
T8 sequence (Q96JH8 971-1071, limits assumed, looked up): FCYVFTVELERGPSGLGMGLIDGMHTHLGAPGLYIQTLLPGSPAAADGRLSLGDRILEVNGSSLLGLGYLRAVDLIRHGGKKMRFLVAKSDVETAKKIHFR

T9: SYNJ2BP, P57105
T9 sequence (P57105 8-110, limits assumed, looked up): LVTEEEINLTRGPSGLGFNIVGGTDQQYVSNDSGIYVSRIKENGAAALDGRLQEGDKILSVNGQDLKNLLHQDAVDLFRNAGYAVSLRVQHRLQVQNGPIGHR

T10: CARD11, Q9BXL7
T10 sequence (Q9BXL7 662-765, limits assumed, looked up): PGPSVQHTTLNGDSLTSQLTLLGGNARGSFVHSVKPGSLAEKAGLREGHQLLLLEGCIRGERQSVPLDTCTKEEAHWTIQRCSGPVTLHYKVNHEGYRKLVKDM

T11: RHPN1, Q8TCX5
T11 sequence (Q8TCX5 508-602, limits assumed, looked up): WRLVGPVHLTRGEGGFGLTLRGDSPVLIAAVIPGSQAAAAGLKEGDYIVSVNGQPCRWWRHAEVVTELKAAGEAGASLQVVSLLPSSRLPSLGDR

T12: DFNB31_1, Q9P202
T12 sequence (Q9P202 135-233, limits assumed, looked up): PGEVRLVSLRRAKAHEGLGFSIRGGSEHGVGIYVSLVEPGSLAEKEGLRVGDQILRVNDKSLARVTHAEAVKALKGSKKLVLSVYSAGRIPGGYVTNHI

T13: LRRC7, Q96NW7
T13 sequence (Q96NW7 1440-1537, limits assumed, looked up): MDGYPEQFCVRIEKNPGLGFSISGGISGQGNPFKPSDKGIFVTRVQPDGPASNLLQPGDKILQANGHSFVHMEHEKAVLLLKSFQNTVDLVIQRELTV


How the values were obtained:
Experiment in all cases: holdup assay
Set-up in all cases: key: below the threshold = too weak to quantify, mostly under pKd 3.1 to 4
Details in all cases: plain residues with an end cap or a label only (N-terminal biotin on a linker: ado-ado)
MPDZ_5, O75970 = target: T1, MPDZ_5, O75970
FRMPD2_3, Q68DX3 = target: FRMPD2_3, Q68DX3
GRIP1_3, Q9Y3R0 = target: T2, GRIP1_3, Q9Y3R0
DLG3_2, Q92796 = target: T3, DLG3_2, Q92796
NHERF4_2, Q86UT5 = target: NHERF4_2, Q86UT5
TJP1_3, Q07157 = target: TJP1_3, Q07157
SIPA1L2, Q9P2F8 = target: T4, SIPA1L2, Q9P2F8
HTRA1, Q92743 = target: HTRA1, Q92743
GRIP2_6, Q9C0E4 = target: GRIP2_6, Q9C0E4
DLG3_3, Q92796 = target: T5, DLG3_3, Q92796
Inadl_1, Q8NI35 = target: Inadl_1, Q8NI35
MPP7, Q5T2T1 = target: T6, MPP7, Q5T2T1
ARHGEF12, Q9NZN5-2 = target: ARHGEF12, Q9NZN5-2
SNX27, Q96L92 = target: SNX27, Q96L92
ARHGEF11, O15085 = target: T7, ARHGEF11, O15085
RADIL, Q96JH8 = target: T8, RADIL, Q96JH8
Inadl_6, Q8NI35 = target: Inadl_6, Q8NI35
MAGI2_2, Q86UL8 = target: MAGI2_2, Q86UL8
SYNJ2BP, P57105 = target: T9, SYNJ2BP, P57105
CARD11, Q9BXL7 = target: T10, CARD11, Q9BXL7
RHPN1, Q8TCX5 = target: T11, RHPN1, Q8TCX5
DFNB31_1, Q9P202 = target: T12, DFNB31_1, Q9P202
GRIP2_5, Q9C0E4 = target: GRIP2_5, Q9C0E4
LRRC7, Q96NW7 = target: T13, LRRC7, Q96NW7

Sequence of GRIP2_6, Q9C0E4 (Q9C0E4 648-740): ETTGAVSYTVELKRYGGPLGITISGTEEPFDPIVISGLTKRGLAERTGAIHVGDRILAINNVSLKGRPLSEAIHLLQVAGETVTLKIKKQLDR
Sequence of Inadl_6, Q8NI35 (Q8NI35 1058-1167): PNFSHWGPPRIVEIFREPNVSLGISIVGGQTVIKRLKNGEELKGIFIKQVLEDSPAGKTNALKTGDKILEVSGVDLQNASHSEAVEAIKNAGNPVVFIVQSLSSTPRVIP
Sequence of FRMPD2_3, Q68DX3 (Q68DX3 1073-1166): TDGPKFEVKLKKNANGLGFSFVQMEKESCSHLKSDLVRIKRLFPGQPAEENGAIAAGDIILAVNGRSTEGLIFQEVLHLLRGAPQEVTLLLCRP
Sequence of ARHGEF12, Q9NZN5-2 (Q9NZN5 other isoform, or with tags, fused parts or gaps): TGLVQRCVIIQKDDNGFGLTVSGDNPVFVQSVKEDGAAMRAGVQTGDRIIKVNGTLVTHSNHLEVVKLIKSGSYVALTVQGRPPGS
Sequence of MAGI2_2, Q86UL8 (Q86UL8 410-522): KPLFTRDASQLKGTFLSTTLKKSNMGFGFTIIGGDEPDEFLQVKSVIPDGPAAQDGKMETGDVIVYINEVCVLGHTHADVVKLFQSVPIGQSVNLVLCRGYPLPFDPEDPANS
Sequence of Inadl_1, Q8NI35 (Q8NI35 113-229): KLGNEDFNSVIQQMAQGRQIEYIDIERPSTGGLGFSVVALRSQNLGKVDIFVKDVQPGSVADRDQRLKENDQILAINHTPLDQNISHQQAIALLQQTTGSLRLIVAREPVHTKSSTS
Sequence of TJP1_3, Q07157 (Q07157 416-512): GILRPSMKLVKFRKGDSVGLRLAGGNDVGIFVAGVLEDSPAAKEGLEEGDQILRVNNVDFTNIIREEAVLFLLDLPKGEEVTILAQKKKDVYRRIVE
Sequence of GRIP2_5, Q9C0E4 (Q9C0E4 544-642): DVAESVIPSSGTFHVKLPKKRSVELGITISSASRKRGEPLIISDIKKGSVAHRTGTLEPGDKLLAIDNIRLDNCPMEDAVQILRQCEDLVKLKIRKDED
Sequence of HTRA1, Q92743 (Q92743 360-477): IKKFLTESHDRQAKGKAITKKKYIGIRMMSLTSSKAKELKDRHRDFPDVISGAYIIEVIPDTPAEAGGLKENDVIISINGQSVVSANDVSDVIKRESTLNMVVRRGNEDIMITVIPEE
Sequence of NHERF4_2, Q86UT5 (Q86UT5 220-308): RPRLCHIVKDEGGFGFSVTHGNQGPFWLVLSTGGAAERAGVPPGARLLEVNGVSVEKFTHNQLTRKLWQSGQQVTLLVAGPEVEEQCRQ

| pKd (MPDZ_5, O75970) | pKd (FRMPD2_3, Q68DX3) | pKd (GRIP1_3, Q9Y3R0) | pKd (DLG3_2, Q92796) | pKd (NHERF4_2, Q86UT5) | pKd (TJP1_3, Q07157) | pKd (SIPA1L2, Q9P2F8) | pKd (HTRA1, Q92743) | pKd (GRIP2_6, Q9C0E4) | pKd (DLG3_3, Q92796) | pKd (Inadl_1, Q8NI35) | pKd (MPP7, Q5T2T1) | pKd (ARHGEF12, Q9NZN5-2) | pKd (ARHGEF11, O15085) | pKd (RADIL, Q96JH8) | pKd (Inadl_6, Q8NI35) | pKd (MAGI2_2, Q86UL8) | pKd (SYNJ2BP, P57105) | pKd (CARD11, Q9BXL7) | pKd (RHPN1, Q8TCX5) | Binder | also measured |
| --- | --- | --- | --- | --- | --- | --- | --- | --- | --- | --- | --- | --- | --- | --- | --- | --- | --- | --- | --- | --- | --- |
| below the threshold | below the threshold | below the threshold | 4.26 | below the threshold | below the threshold | below the threshold | below the threshold | below the threshold | 1.84 | below the threshold | below the threshold |  | 3.74 | below the threshold | below the threshold | 3.65 | 5.02 | 1.75 | 3.84 | KRPEMTSSSV [MUC3A, MUC3B, Q02505;Q9H195] | pKd (GRIP2_5, Q9C0E4): below the threshold; pKd (LRRC7, Q96NW7): below the threshold |
| below the threshold | below the threshold | below the threshold | below the threshold | below the threshold | below the threshold | below the threshold | 3.55 | below the threshold | below the threshold | below the threshold | below the threshold | 5.05 | 4.2 | below the threshold | below the threshold | below the threshold | below the threshold | below the threshold | 3.92 | PSVGSKKTVL [REELD1, A0A1B0GV85] | pKd (SNX27, Q96L92): 3.71; pKd (DFNB31_1, Q9P202): below the threshold; pKd (GRIP2_5, Q9C0E4): below the threshold; pKd (LRRC7, Q96NW7): below the threshold |
| below the threshold | below the threshold | below the threshold | below the threshold |  | below the threshold | below the threshold | 4.51 |  | below the threshold | below the threshold | below the threshold | 3.91 | 4.32 | 4.44 |  | below the threshold | below the threshold | below the threshold | below the threshold | KSRVAFFEEL [NF2, P35240;P35240-1] |  |
| below the threshold | 3.51 | below the threshold | 3.91 | below the threshold | below the threshold | below the threshold | 5.31 | 3.57 | below the threshold | 3.93 | 5.46 | below the threshold | below the threshold | 3.76 | below the threshold | 3.78 | below the threshold | below the threshold | below the threshold | IDESKKEWLI [CNTNAP2, Q9UHC6] | pKd (SNX27, Q96L92): below the threshold; pKd (DFNB31_1, Q9P202): below the threshold; pKd (GRIP2_5, Q9C0E4): below the threshold; pKd (LRRC7, Q96NW7): below the threshold |

More lines, now with the values behind:

| Binder | pKd (MPDZ_5, O75970) | pKd (FRMPD2_3, Q68DX3) | pKd (GRIP1_3, Q9Y3R0) | pKd (DLG3_2, Q92796) | pKd (NHERF4_2, Q86UT5) | pKd (TJP1_3, Q07157) | pKd (SIPA1L2, Q9P2F8) | pKd (HTRA1, Q92743) | pKd (GRIP2_6, Q9C0E4) | pKd (DLG3_3, Q92796) | pKd (Inadl_1, Q8NI35) | pKd (MPP7, Q5T2T1) | pKd (ARHGEF12, Q9NZN5-2) | pKd (ARHGEF11, O15085) | pKd (RADIL, Q96JH8) | pKd (Inadl_6, Q8NI35) | pKd (MAGI2_2, Q86UL8) | pKd (SYNJ2BP, P57105) | pKd (CARD11, Q9BXL7) | pKd (RHPN1, Q8TCX5) | also measured |
| --- | --- | --- | --- | --- | --- | --- | --- | --- | --- | --- | --- | --- | --- | --- | --- | --- | --- | --- | --- | --- | --- |
| DTKNYKQTSV [CRIPT, Q9P021] | below the threshold | below the threshold | below the threshold | 4.61 | below the threshold | below the threshold | below the threshold | below the threshold | 3.52 | 5.16 | below the threshold | below the threshold | 4.36 | 4.12 | below the threshold | below the threshold | 4.55 | 5.12 | below the threshold | 4.07 | pKd (SNX27, Q96L92): 5.33; pKd (DFNB31_1, Q9P202): 4.32; pKd (GRIP2_5, Q9C0E4): below the threshold; pKd (LRRC7, Q96NW7): 3.92 |
| SRSVVESDEL [MYPN, Q86TC9] | below the threshold | below the threshold | below the threshold | below the threshold | below the threshold | below the threshold | below the threshold | 3.69 | 3.95 | below the threshold | below the threshold | below the threshold | 3.58 | 3.74 | below the threshold | below the threshold | below the threshold | below the threshold | below the threshold | below the threshold | pKd (SNX27, Q96L92): 4.17; pKd (DFNB31_1, Q9P202): below the threshold; pKd (GRIP2_5, Q9C0E4): below the threshold; pKd (LRRC7, Q96NW7): below the threshold |

Reference: publication PMC9482650, “Quantitative fragmentomics allow affinity mapping of interactomes” (Nature Communications, 2022)
